From patent US20220389394A1 come the findings set out here.

For test [1], the target named is biotinylated recombinant human FcγRI protein (Sino Biological) (human) (UniProt P12314). Briefly: AlphaScreen competition; biotinylated FcγRI, competitor human IgG acceptor beads, 4PL fit. On the technique in general: Bead proximity is the source of the signal in Alpha formats.
Test [2] has the same target. The description is as above. The source holds these as a separate data set.
The target of test [3] is recombinant human C1q protein (Fitzgerald) (human) (UniProt P02745). Nature of the test: ELISA; serially diluted test article immobilized, recombinant human C1q added, anti-C1q-HRP, 4PL fit. A general note: An ELISA detects its analyte on a solid surface through an enzyme-linked reagent.
Sequence of recombinant human C1q protein (Fitzgerald) (human) (P02745 23-245 limits assumed, chain 1 of 3): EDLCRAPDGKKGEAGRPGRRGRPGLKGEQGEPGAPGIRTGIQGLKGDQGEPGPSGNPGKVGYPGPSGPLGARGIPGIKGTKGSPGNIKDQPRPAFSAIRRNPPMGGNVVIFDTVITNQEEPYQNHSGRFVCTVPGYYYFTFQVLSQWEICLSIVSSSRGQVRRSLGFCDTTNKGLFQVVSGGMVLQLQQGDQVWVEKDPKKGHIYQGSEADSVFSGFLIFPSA
Sequence of recombinant human C1q protein (Fitzgerald) (human) (P02746 28-253 limits assumed, chain 2 of 3, further chain): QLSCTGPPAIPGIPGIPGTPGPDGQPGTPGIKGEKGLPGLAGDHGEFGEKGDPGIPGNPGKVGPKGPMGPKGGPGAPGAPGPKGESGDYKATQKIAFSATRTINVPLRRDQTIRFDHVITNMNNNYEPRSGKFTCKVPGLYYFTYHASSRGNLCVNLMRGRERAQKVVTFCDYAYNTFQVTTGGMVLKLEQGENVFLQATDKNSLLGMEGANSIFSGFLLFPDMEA
Sequence of recombinant human C1q protein (Fitzgerald) (human) (P02747 29-245 limits assumed, chain 3 of 3, further chain): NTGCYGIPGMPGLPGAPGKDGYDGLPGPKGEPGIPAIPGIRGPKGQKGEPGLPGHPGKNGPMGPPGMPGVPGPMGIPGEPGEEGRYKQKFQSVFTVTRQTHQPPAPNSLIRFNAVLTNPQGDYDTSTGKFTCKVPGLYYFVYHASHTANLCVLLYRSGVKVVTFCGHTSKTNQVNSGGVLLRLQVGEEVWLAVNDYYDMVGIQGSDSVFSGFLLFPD
For test [4], the target named is recombinant human FcRn (human) (UniProt P55899). Nature of the test: ELISA; recombinant human FcRn coated, serially diluted test article, anti-human (H+L)-HRP, 4PL fit.
Sequence of recombinant human FcRn (human) (P55899 24-297 limits assumed, chain 1 of 2): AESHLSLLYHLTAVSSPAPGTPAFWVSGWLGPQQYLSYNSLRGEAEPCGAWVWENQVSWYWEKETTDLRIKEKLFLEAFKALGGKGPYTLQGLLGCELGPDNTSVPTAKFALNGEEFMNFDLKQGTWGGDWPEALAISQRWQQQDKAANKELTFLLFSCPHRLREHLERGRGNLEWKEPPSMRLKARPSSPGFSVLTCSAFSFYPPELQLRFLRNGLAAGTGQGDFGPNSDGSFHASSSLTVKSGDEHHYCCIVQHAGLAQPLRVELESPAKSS
Sequence of recombinant human FcRn (human) (chain, as listed by the source limits assumed, chain 2 of 2): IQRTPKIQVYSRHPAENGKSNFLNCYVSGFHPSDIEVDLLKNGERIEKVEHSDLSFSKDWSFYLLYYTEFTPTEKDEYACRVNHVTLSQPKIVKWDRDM
Test [5] concerns the target biotinylated recombinant human FcγRIIIa (Val 176 variant) protein (Sino Biological) (human) (UniProt P08637). Nature of the test: AlphaScreen competition; biotinylated FcγRIIIa (Val 176 variant), competitor human IgG acceptor beads, 4PL fit.
Test [6] shares this target. The description is as above. This is another data set of the same source.
For test [7], the target named is recombinant human C1q protein (Fitzgerald) (human) (UniProt P02745). Briefly: ELISA; serially diluted test article immobilized, recombinant human C1q added, anti-C1q-HRP, 4PL fit. The source holds these as a separate data set.
Test [8] concerns the target mouse FLT3 on the M1 cell line (mouse) (UniProt Q00342). Briefly: cell-based or functional assay.
Test [9] concerns the target human FLT3 on the AML5 cell line (human) (UniProt P36888). Briefly: cell-based or functional assay.

Like-named read-outs stand apart in the source and are kept apart here.

Sequence of biotinylated recombinant human FcγRIIIa (Val 176 variant) protein (Sino Biological) (human) (P08637 other isoform, or with tags, fused parts or gaps mutant limits assumed): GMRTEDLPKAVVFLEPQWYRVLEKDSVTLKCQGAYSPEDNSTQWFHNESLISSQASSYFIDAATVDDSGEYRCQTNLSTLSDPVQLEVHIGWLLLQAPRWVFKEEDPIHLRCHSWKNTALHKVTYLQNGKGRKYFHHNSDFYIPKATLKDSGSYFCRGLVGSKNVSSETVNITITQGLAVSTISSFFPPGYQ
Sequence of mouse FLT3 on the M1 cell line (mouse) (Q00342 28-1000): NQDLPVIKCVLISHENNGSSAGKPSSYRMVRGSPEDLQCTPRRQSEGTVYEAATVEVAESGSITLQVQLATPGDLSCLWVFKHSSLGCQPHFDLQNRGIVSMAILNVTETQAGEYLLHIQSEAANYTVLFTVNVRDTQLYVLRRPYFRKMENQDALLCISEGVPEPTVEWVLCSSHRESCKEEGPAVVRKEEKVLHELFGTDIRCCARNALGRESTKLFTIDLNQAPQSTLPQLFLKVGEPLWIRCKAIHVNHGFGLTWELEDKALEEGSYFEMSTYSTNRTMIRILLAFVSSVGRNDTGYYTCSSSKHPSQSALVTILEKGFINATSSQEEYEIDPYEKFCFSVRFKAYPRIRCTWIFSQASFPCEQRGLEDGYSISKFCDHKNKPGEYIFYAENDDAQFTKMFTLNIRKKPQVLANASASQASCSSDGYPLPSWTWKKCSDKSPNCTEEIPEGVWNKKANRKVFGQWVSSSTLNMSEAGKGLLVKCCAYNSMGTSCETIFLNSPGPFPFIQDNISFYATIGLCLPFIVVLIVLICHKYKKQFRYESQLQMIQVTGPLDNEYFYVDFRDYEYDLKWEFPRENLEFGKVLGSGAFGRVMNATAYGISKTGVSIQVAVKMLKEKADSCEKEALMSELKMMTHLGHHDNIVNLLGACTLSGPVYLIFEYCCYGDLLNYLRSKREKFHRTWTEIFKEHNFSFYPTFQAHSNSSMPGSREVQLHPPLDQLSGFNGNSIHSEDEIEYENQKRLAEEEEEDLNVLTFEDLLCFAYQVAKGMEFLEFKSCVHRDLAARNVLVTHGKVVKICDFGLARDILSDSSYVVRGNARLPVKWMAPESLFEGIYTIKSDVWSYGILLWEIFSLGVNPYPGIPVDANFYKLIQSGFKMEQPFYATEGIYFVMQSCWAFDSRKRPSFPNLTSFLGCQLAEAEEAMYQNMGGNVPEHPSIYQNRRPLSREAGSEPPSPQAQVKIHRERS
Sequence of biotinylated recombinant human FcγRI protein (Sino Biological) (human) (P12314 16-288 limits assumed): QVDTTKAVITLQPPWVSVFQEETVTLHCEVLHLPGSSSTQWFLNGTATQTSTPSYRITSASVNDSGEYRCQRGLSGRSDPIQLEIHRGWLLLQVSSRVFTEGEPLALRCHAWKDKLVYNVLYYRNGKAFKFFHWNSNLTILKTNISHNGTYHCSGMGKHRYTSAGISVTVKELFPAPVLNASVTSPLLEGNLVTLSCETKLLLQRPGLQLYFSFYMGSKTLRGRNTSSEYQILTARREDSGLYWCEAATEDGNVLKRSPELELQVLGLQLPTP
Sequence of human FLT3 on the AML5 cell line (human) (P36888 27-993): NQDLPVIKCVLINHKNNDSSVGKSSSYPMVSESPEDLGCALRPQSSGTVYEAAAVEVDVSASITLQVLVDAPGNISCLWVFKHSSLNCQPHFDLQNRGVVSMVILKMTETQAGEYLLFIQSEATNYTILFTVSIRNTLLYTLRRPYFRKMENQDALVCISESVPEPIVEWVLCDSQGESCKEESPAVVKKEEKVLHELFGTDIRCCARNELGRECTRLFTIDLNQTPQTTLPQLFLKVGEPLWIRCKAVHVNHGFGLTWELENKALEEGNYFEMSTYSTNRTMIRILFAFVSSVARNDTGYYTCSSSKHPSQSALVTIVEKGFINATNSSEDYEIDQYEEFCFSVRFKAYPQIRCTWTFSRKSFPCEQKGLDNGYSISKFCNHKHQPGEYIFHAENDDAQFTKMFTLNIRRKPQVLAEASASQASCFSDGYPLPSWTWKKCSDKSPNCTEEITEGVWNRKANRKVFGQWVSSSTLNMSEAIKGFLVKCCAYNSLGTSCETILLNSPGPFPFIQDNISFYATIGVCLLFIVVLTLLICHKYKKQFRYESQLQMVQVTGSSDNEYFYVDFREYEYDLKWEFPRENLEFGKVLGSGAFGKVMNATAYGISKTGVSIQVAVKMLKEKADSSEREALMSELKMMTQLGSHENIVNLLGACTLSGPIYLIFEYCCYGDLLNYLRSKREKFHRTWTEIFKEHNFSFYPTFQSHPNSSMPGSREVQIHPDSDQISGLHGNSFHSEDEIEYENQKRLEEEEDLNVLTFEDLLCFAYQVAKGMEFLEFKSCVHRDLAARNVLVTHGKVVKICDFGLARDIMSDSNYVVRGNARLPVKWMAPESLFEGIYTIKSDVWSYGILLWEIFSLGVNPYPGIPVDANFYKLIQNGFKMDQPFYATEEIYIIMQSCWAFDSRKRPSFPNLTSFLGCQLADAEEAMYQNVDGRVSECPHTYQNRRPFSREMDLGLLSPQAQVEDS

As to human IgG4 isotype antibody, the EC50 in test [1] turned out to be 14.5 nM; in test [2], 13.6 nM; in [3], 16.7 nM; in test [4], 25.9 nM; in [5] it was 368 nM; in test [6], 326 nM. In addition, the EC50 in [7] was found to be 13.7 nM.

For “recombinant human FLT3-ligand (from UniProt P49771 27-185)”, in test [8], the EC50 (nM), M1 IL-6 release assay is 0.024 nM and the Emax (pg/ml), M1 IL-6 release assay turned out to be 392 pg/mL. In test [9], this substance came in with an EC50 (nM), AML5 proliferation of 0.039 nM.

As to “recombinant human FLT3-ligand human IgG1 fusion protein (Fc fusion)”, in test [8], the EC50 (nM), M1 IL-6 release assay was determined as 0.117 nM and the Emax (pg/ml), M1 IL-6 release assay was 517 pg/mL.

For the substance human IgG1 isotype antibody, the EC50 in test [1] was found to be 5.25 nM; in test [2] it was 4.44 nM; in test [4] it was 4.46 nM; in [5], 38.8 nM; in test [6], 32.1 nM.

Broadly, the EC50 is the concentration at which the effect is half-maximal.
